Source: patent publication US20250002583A1 (PERSONGEN BIOTHERAPEUTICS SUZHOU, published 2025)
Changes are numbered by the printed parent chain.

T1: B7-H3 (CD276) Protein, Human, Recombinant (His Tag) (Human, UniProt Q5ZPR3 29-461, limits assumed)
T1 construct: Bought protein; also called CD276-His recombinant protein; CD276 recombinant protein; not shown: His tag
T1 sequence (looked up): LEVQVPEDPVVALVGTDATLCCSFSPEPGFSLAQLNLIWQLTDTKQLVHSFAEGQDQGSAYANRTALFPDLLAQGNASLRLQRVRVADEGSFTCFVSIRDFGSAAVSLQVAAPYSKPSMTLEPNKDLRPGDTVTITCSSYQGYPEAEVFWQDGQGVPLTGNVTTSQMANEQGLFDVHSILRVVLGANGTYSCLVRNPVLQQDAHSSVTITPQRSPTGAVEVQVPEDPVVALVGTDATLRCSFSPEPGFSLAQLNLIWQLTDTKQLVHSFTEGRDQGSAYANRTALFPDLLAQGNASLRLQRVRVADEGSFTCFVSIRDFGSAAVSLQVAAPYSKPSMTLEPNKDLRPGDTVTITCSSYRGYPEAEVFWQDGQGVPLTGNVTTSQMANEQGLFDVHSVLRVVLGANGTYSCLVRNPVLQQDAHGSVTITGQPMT

B1: CD276T1H1-T1L1 (antibody, V domains shown)
VH: EVQLVESGGGLIQPGGSLRLSCAASGFTFSTYVMSWVRQAPGKGLEWVSSILSGGTSFYADNVKGRFTISRDNSKNTLYLQMNSLRAEDTAVYYCARRYGHDHYYAMDYWGQGTLVTVSS
VL: EIVLTQSPATLSLSPGERATLSCAASSSVSSSYLHWYQQKPGLAPRLLIYSTSNLASGIPDRFSGSGSGTDFTLTISRLEPEDFAVYYCQQYHRSPWTFGGGTKVEIK
notes: Heavy chain variable region cloned into pcDNA3.1-IgG1Fc and light chain variable region into pcDNA3.1-IgKc (IgG1, kappa); also called humanized CD276 antibody (CD276T1H1-T1L1); CD276 humanized antibody
B2: CD276T2H1-T2L1 (antibody, V domains shown)
VH: B1 VH with L11V, I12V, Q13R, S74A, T77S, V92L, Y94H, L115T
VL: DIQMTQSPSTLSASVGDRVTITCAASSSVSSSYLHWYQQKPGKAPKLLIYSTSNLASGVPSRFSGSGSGTEFTLTISSLQPDDFATYYCQQYHRSPWTFGQGTKLEIK
notes: Heavy chain variable region cloned into pcDNA3.1-IgG1Fc and light chain variable region into pcDNA3.1-IgKc (IgG1, kappa)
B3: CD276 Chimeric (antibody, V domains shown)
VH: EVTLVESGGGLVKPGGSLKLSCAASGFTFSTYVMSWVRQTPEKRLEWVASILSGGTSFYADNVKGRFTISRENARNILYLQMSSLKSEDTAMYYCVRRYGHDHYYAMDYWGQGTSVTVSS
VL: QIVLTQSPANMSASLGERVTMTCAASSSVSSSYLHWYQQKPGSSPKLWIYSTSNLASGVPGRFNGSGSGTSYSLTISSMEAEDAATYYCHQYHRSPWTFGGGTKLEIK
notes: Murine variable regions cloned into pcDNA3.1-IgG1Fc (heavy) and pcDNA3.1-IgKc (light); also called human-mouse chimeric antibody; human-murine chimeric antibody

Molecular target: T1, B7-H3 (CD276) Protein, Human, …
Assay: SPR (BiaCore T200), CD276 recombinant protein amine-coupled on CM5 chip, antibody as analyte

| Binder | Kd [nM] | koff [s⁻¹] | kon [M⁻¹ s⁻¹] |
| --- | --- | --- | --- |
| B1 | 114 | 0.00282 | 24800 |
| B2 | 72.8 | 0.00289 | 39700 |
| B3 | 70.8 | 0.00258 | 36400 |
